Measured values taken from paper PMC12483565, “CBFβ-SMMHC–driven leukemogenesis requires enhanced RUNX1-DNA binding affinity in mice”.

Molecular target: runt homology domain (RHD) of hRUNX1c (human)
Assay: BLI; biotinylated RHD loaded on streptavidin biosensors; CBFβ, CBFβ-SMMHC or mutants in solution at varying concentrations (50-600 nM); Octet RED96e; 20 mM Tris-HCl pH 8.0, 100 mM KCl, 1 mM EDTA, 1 mM DTT, 0.02% Tween 20; global fit

Kd	Substance
64.7 nM	core-binding factor β (CBFβ) (from UniProt Q13951-2 1-187) (natural protein)
13 nM	CBFβ-SMMHC (from UniProt Q13951 1-165)
